Results from the supplement of paper PMC10724198.
± gives the standard deviation of the averaged measurements.

test system: Saccharomyces cerevisiae; assay: protein stability index of tFT-peptide fusion (C-terminal peptide) (PSI (0-1 scale)); higher = more stable (slower turnover); details: genetic background: wild type; temperature: 30 C
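Also: PSI is a weighted mean of sequencing reads over stability bins, variants kept only with over 10 reads, mCherry proximal and sfGFP distal, peptide attached via GGGS linker.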

VGCSGVYIWGNL and VGDIGLEVKLFF are within error of each other in protein stability index: 0.707 ± 0.015 for the first, 0.72 ± 0.0076 for the second.

VGDPHPIMQSLL and VGEVAGRWCGRG are within error of each other in protein stability index: 0.773 ± 0.049 for the first, 0.7 ± 0.025 for the second.

First: VGFGEGCLSFPF
Second: VGFRMAMVVGGL
The protein stability index of the first is higher: 0.668 ± 0.072 for the first, 0.519 ± 0.026 for the second.

VGFSVLGGRAGW and VGGGAVRAWGLR are within error of each other in protein stability index: 0.712 ± 0.044 for the first, 0.688 ± 0.028 for the second.

First: VGGGGAVDGRSG
Second: VGGGLGGGVVLV
The protein stability index of the first is higher: 0.7298 ± 0.0025 for the first, 0.6993 ± 0.0011 for the second.

Going from VGGGPVWREPGT to VGGGRGGVVRSG, the protein stability index falls from 0.796 ± 0.025 to 0.654 ± 0.1.

Going from VGGRDDGFVWEG to VGGRDWADSLVV, the protein stability index rises from 0.667 ± 0.031 to 0.772 ± 0.015.

VGGVVWIGGVVG and VGIRTFFRFRMR are within error of each other in protein stability index: 0.667 ± 0.074 for the first, 0.6692 ± 0.0014 for the second.

Compared with VGKCGSGCLHST, VGLTGFSQLGDG is higher in protein stability index: 0.6313 ± 0.004 for the first, 0.675 ± 0.032 for the second.

First: VGPCGGVGHLGS
Second: VGPRGFYSFVGG
The protein stability index of the first is higher: 0.73 ± 0.036 for the first, 0.665 ± 0.014 for the second.

Going from VGRENNENREEE to VGRPGGVAQHRG, the protein stability index rises from 0.629 ± 0.021 to 0.734 ± 0.077.

Compared with VGSCGAPRLPWP, VGSFVGSREGVW is lower in protein stability index: 0.732 ± 0.038 for the first, 0.613 ± 0.029 for the second.

VGSGEWTRAMNR and VGSLCSRLGRRS are within error of each other in protein stability index: 0.673 ± 0.062 for the first, 0.765 ± 0.13 for the second.

VGSLFGFGGRWV and VGSPPVWAAVWG are within error of each other in protein stability index: 0.645 ± 0.0082 for the first, 0.614 ± 0.12 for the second.

VGSVVRGLVGPY and VGTSVTSSFRGK are within error of each other in protein stability index: 0.717 ± 0.19 for the first, 0.591 ± 0.078 for the second.

First: VGVAREGQVGAA
Second: VGVCLVSLGSWL
The protein stability index of the first is higher: 0.694 ± 0.024 for the first, 0.605 ± 0.013 for the second.

VGVGAGQWVVWY and VGVGWWVGLWGL are within error of each other in protein stability index: 0.682 ± 0.028 for the first, 0.693 ± 0.011 for the second.

Going from VGVPFLVVGVGV to VGVSLVLPDWDV, the protein stability index rises from 0.583 ± 0.00081 to 0.693 ± 0.053.

VGWGECPKVECV and VGWGWGGGVVLV are within error of each other in protein stability index: 0.599 ± 0.1 for the first, 0.692 ± 0.0098 for the second.

VGYGTGGAVGVE and VHCGTEPRGPRH are within error of each other in protein stability index: 0.691 ± 0.041 for the first, 0.709 ± 0.027 for the second.

VHENVGSGYNLE and VHPRFSFGPHFV are within error of each other in protein stability index: 0.734 ± 0.14 for the first, 0.7027 ± 0.00094 for the second.

VHRKGGRLEILG and VHRRRVSVGGGA are within error of each other in protein stability index: 0.64 ± 0.033 for the first, 0.721 ± 0.05 for the second.

Going from VHSGKGRQAKER to VIACLCGGVMWV, the protein stability index falls from 0.715 ± 0.048 to 0.577 ± 0.0008.

Going from VIEWFVRGRVGG to VIGWACLCFGAI, the protein stability index falls from 0.7032 ± 0.00085 to 0.555 ± 0.0063.

VILCPVCFPEEK and VIMGRGGGNVGG are within error of each other in protein stability index: 0.66459 ± 0.00057 for the first, 0.701 ± 0.053 for the second.

VIMNPGNDFLQK and VINKHYINKCQG are within error of each other in protein stability index: 0.702 ± 0.011 for the first, 0.638 ± 0.088 for the second.

VIPSCMVFSSTG and VITAYHSLTYGA are within error of each other in protein stability index: 0.71 ± 0.049 for the first, 0.6878 ± 0.0038 for the second.

First: VITCGLVLRSVR
Second: VITFPAFLPISN
The protein stability index of the first is lower: 0.652 ± 0.031 for the first, 0.702 ± 0.017 for the second.

Going from VIVRAFRWNLVR to VKTGIKQSLTEP, the protein stability index rises from 0.605 ± 0.029 to 0.6982 ± 0.0037.

VKTSRASLSGKL and VLAPPPLLPPPY are within error of each other in protein stability index: 0.805 ± 0.12 for the first, 0.6843 ± 0.0021 for the second.

VLCIYKLSQVRL and VLFGLSTSSLCL are within error of each other in protein stability index: 0.654 ± 0.049 for the first, 0.644 ± 0.075 for the second.

Compared with VLFHWAGFFLFL, VLFPSPSPPLSS is higher in protein stability index: 0.525 ± 0.029 for the first, 0.7 ± 0.0071 for the second.

Compared with VLFSCLSLCWVF, VLGFGSVPAWIE is higher in protein stability index: 0.6081 ± 0.005 for the first, 0.776 ± 0.048 for the second.

First: VLGIVEKRGILR
Second: VLGPWVLSVLWF
The protein stability index of the first is higher: 0.773 ± 0.11 for the first, 0.546 ± 0.022 for the second.

VLHLVGFDADVV and VLKYSVQHREFS are within error of each other in protein stability index: 0.725 ± 0.021 for the first, 0.685 ± 0.019 for the second.

Compared with VLLAGRLEEGGE, VLLLLLSLLFGV is lower in protein stability index: 0.65 ± 0.087 for the first, 0.5135 ± 0.0023 for the second.

Going from VLLSSWLIWLGG to VLMGGCGSWMAV, the protein stability index rises from 0.62 ± 0.01 to 0.6771 ± 0.0044.

VLPAGAGKGCVG and VLPSSSPPGLRC are within error of each other in protein stability index: 0.653 ± 0.052 for the first, 0.6698 ± 0.0059 for the second.

Going from VLQSLRSLRRLG to VLRRCGRERGIF, the protein stability index rises from 0.549 ± 0.071 to 0.688 ± 0.034.

VLRRRPNDMRKF and VLSEHRGLPLTR are within error of each other in protein stability index: 0.6939 ± 0.0062 for the first, 0.659 ± 0.066 for the second.

VLSLPLPSLSLN and VLSPLIGRICGH are within error of each other in protein stability index: 0.725 ± 0.18 for the first, 0.658 ± 0.01 for the second.

Compared with VLSSPPVPAPRP, VLSYFFLFSCAS is lower in protein stability index: 0.701 ± 0.051 for the first, 0.502 ± 0.098 for the second.

VLVGWWGLGGGV and VLVYISDLKRSL are within error of each other in protein stability index: 0.642 ± 0.046 for the first, 0.689 ± 0.14 for the second.

First: VLWLPPSPTPNL
Second: VMCECALLVQSR
The protein stability index of the first is higher: 0.721 ± 0.1 for the first, 0.563 ± 0.028 for the second.

Going from VMCWARGWVGST to VMGFCDWLGVFL, the protein stability index rises from 0.655 ± 0.05 to 0.728 ± 0.012.

VMSGPSGARRIW and VMVVKSSSNTNI are within error of each other in protein stability index: 0.701 ± 0.055 for the first, 0.641 ± 0.0077 for the second.

VMWVGAGVSLSC and VNCFVYGKCCSG are within error of each other in protein stability index: 0.6411 ± 0.0041 for the first, 0.648 ± 0.072 for the second.

Compared with VPDRIFRSASQT, VPFDFFVYFFEF is lower in protein stability index: 0.714 ± 0.0049 for the first, 0.5861 ± 0.0018 for the second.

Compared with VPIRSGYLRPNF, VPLRLSTVSFGP is higher in protein stability index: 0.573 ± 0.038 for the first, 0.746 ± 0.12 for the second.

VPPLFALAPPAP and VPPLPPDSCTVT are within error of each other in protein stability index: 0.681 ± 0.029 for the first, 0.699 ± 0.073 for the second.

VPPPPPCTIPFP and VPSLAVPPEGSV are the same in protein stability index: 0.678 ± 0.07 for the first, 0.678 ± 0.06 for the second.

Going from VPSPLPLPPLAP to VPVAGSFVGIRF, the protein stability index falls from 0.722 ± 0.036 to 0.6753 ± 0.004.

VPWVFVYGEGVR and VPYLPPHLPLPP are within error of each other in protein stability index: 0.734 ± 0.024 for the first, 0.71 ± 0.043 for the second.

First: VQASQFRFSVPL
Second: VQAWYWGFFCST
The protein stability index of the first is lower: 0.632 ± 0.013 for the first, 0.785 ± 0.036 for the second.

VQPAGLEFGPLS and VQSVIEPSIRYA are within error of each other in protein stability index: 0.6457 ± 0.0015 for the first, 0.648 ± 0.014 for the second.

First: VRCSLPSPSPRP
Second: VRDGPRCPVACP
The protein stability index of the first is higher: 0.77 ± 0.015 for the first, 0.621 ± 0.02 for the second.

First: VREMGSPGLYRP
Second: VRFRCIPGSPVC
The protein stability index of the first is higher: 0.713 ± 0.01 for the first, 0.643 ± 0.0094 for the second.

Going from VRFVVVRRFRLP to VRGKYNNGNKKM, the protein stability index rises from 0.649 ± 0.0076 to 0.675 ± 0.013.

VRGMGGIGRCVG and VRGRGSGGGVAG are within error of each other in protein stability index: 0.657 ± 0.074 for the first, 0.675 ± 0.065 for the second.

Going from VRGVCGVGFGVW to VRHYSSNFAPFI, the protein stability index rises from 0.604 ± 0.046 to 0.676 ± 0.025.

VRIGSEGPGREE and VRLHVPLQRFMK are within error of each other in protein stability index: 0.677 ± 0.03 for the first, 0.73 ± 0.029 for the second.

Compared with VRLIQLLFTLRT, VRLRGEGCGWGG is higher in protein stability index: 0.53 ± 0.062 for the first, 0.7158 ± 0.0022 for the second.

VRQKTPREQRVY and VRQRADSCEAHA are within error of each other in protein stability index: 0.701 ± 0.059 for the first, 0.659 ± 0.056 for the second.

VRQSCGSRGFFF and VRRAGVGEGITG are within error of each other in protein stability index: 0.729 ± 0.023 for the first, 0.671 ± 0.052 for the second.

VRRGGGGGGYGI and VRRGGRARRRGS are within error of each other in protein stability index: 0.72 ± 0.031 for the first, 0.698 ± 0.016 for the second.

First: VRRHPQYPLLRV
Second: VRSLLGLPLPGL
The protein stability index of the first is lower: 0.541 ± 0.0099 for the first, 0.788 ± 0.041 for the second.

Compared with VRSSLDGDGLCG, VRTSGRCCPTGP is lower in protein stability index: 0.6869 ± 0.0046 for the first, 0.641 ± 0.036 for the second.

Compared with VRVFLSNALFHH, VRWCLPPLFTPL is higher in protein stability index: 0.596 ± 0.019 for the first, 0.693 ± 0.059 for the second.

Compared with VRWGVVGVQGNW, VRYGSHRNMSLL is higher in protein stability index: 0.678 ± 0.021 for the first, 0.819 ± 0.053 for the second.

First: VSDLGRFVDRRV
Second: VSEFTSHQYDSE
The protein stability index of the first is lower: 0.636 ± 0.029 for the first, 0.746 ± 0.048 for the second.

VSGASHLCQYIK and VSGFEGCYFSDL are within error of each other in protein stability index: 0.724 ± 0.072 for the first, 0.712 ± 0.039 for the second.

Compared with VSGFFFWRSSFV, VSGLRRLVAFAR is lower in protein stability index: 0.678 ± 0.028 for the first, 0.518 ± 0.0061 for the second.

VSGVVHRVVVSR and VSLGNVGYFGSE are within error of each other in protein stability index: 0.7 ± 0.043 for the first, 0.734 ± 0.039 for the second.

VSLLSLRAFYKL and VSLSPVFLGFYR are within error of each other in protein stability index: 0.667 ± 0.05 for the first, 0.706 ± 0.024 for the second.

Compared with VSLVGGLGFGVG, VSQLGTYICSYL is higher in protein stability index: 0.553 ± 0.028 for the first, 0.687 ± 0.053 for the second.

VSRACYTPPQFY and VSRCHLLDLSLV are within error of each other in protein stability index: 0.68 ± 0.13 for the first, 0.642 ± 0.024 for the second.

VSRGHTEWVGMV and VSRWVVCRGGLW are within error of each other in protein stability index: 0.702 ± 0.11 for the first, 0.65 ± 0.078 for the second.

VSSVVTTSAIKR and VSTPSPPSDSTP are within error of each other in protein stability index: 0.715 ± 0.027 for the first, 0.685 ± 0.051 for the second.

First: VSTRSTVVVSSL
Second: VSVIPIVISLSL
The protein stability index of the first is higher: 0.662 ± 0.02 for the first, 0.528 ± 0.036 for the second.

VSVRGREGLDWK and VSVSDSKMARLG are within error of each other in protein stability index: 0.698 ± 0.019 for the first, 0.676 ± 0.055 for the second.
